Results: patent US20190367620A1

Columns and labels:
Human FGF1 (human) = Human FGF1 (human) (UniProt P05230); experiment: cell-based or functional assay
Human FGF2 (human) = Human FGF2 (human) (UniProt P09038); experiment: cell-based or functional assay
Human FGF2 (human), sequence (P09038 135-288 limits assumed): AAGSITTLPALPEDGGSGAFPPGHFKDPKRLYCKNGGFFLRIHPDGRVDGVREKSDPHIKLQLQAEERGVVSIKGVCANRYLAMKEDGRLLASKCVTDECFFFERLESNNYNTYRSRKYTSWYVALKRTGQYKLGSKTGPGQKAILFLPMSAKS

Human FGF1 (human), sequence (P05230 16-155 limits assumed): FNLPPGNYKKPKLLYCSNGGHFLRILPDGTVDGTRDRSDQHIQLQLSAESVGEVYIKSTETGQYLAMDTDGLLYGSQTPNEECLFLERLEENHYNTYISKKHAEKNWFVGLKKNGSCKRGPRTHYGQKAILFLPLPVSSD

**Q.** What does the source list for FP-1039 (Fc fusion)?
**A.** IC50, inhibition of P-FGFR1 in NCI-H520 cells, FGF1 stimulated (Human FGF1 (human)): 50 nM; IC50, inhibition of P-FGFR1 in NCI-H520 cells, FGF2 stimulated (Human FGF2 (human)): 30 nM
